Where “and” joins values, the source holds several entries; their conditions need not be identical. Equal entries are not always repeated.
Target: T1, biotinylated IL31 (human, UniProt Q6EBC2 24-164, biotinylated (sites not given))
T1 construct: also called human IL-31; huIL-31
T1 sequence: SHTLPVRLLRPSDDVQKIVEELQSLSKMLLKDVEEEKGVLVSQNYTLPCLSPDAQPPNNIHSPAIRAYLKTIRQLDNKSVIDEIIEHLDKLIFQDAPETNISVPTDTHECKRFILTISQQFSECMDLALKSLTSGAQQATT
Assay: ELISA with a dilution series of biotinylated IL31, 4-parameter fit (apparent Kd/EC50 as IL31 concentration); parental mouse mAb as control; average of duplicate
Text: The assay format utilized a goat anti-human Fc immobilization for capture of human monoclonal antibodies from unprocessed cell culture conditioned media. A dilution series of biotinylated IL31 tested the “C” parameter of a 4-parameter fit which results in the apparent Kd (or EC50) in either ng/mL or nM of IL31. The assay sensitivity is high enough that dilute monoclonal antibody or chimeric antibody cell culture conditioned media can be evaluated. The Kd determined by this method generally approaches the Kd measured for purified, homogeneous monoclonal antibodies measured using Biacore.

EC50: 0.0043 µg/mL and 0.26 nM
B1: 292.63.5.3 (Lot E9289) Control monoclonal antibody (antibody, V domains shown)
VH: EVQLVESGGDLVKPGGSLKLSCAASGFTFSTFIMSWVRQSPEKRLEWVATINSGGYYTFHPDSVKGRFTISRDNAKNTLYLQMSSLRSEDTAIYYCARQEGWSSAYFSWGQGTLVTVSA
VL: DIVMTQSPSSLDMSEGQKVTMICKSSQSLLNGSNQKNYLAWYQQKPGQSPKLLVSFASTRDSGVPDRFIGSGSGTDFTLTITNVQAEDLADYFCQQHYDTPYTFGGGKLEIR
notes: Mouse anti-human IL-31 hybridoma monoclonal antibody

— US20100008909A1 (ZymoGenetics, published 2010)
